Patent publication US20130280250A1 (published 2013)

Target: T1, CD20 (human, UniProt P11836 1-297)
T1 construct: whole, on cells; also called CD20 on live cells; CD20 on Daudi and Raji cells
T1 sequence (looked up): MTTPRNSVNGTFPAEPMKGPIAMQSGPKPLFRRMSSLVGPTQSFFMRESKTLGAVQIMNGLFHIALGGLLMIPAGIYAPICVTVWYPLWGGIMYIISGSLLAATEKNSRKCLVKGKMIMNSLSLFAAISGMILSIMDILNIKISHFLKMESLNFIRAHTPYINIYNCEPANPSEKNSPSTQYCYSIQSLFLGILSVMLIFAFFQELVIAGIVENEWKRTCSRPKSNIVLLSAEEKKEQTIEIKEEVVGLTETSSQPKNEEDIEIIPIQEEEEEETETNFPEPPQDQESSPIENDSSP
Experiment: Scatchard analysis, radio-iodinated sample on Raji cells; apparent association constant

B1: veltuzumab (hA20) (antibody, V domains shown)
VH: QVQLQQSGAEVKKPGSSVKVSCKASGYTFTSYNMHWVKQAPGQGLEWIGAIYPGMGDTSYNQKFKGKATLTADESTNTAYMELSSLRSEDTAFYYCARSTYYGGDWYFDVWGQGTTVTVSS
VL: DIQLTQSPSSLSASVGDRVTMTCRASSSVSYIHWFQQKPGKAPKPWIYATSNLASGVPVRFSGSGSGTDYTFTISSLQPEDIATYYCQQWTSNPPTFGGGTKLEIK
- Ka: 1e+08 M⁻¹
